Measurements taken from patent publication US20220273767A1 (SYNTHORX, published 2022).

What was measured:
[1] = target: T1, IL-10 receptor signaling complex on mouse splenocytes (CD8 T cells, NK cells, B cells) (mouse, UniProt Q61727 17-575; Q61190 20-349); test: cell-based or functional assay
T1 sequence (looked up) 1: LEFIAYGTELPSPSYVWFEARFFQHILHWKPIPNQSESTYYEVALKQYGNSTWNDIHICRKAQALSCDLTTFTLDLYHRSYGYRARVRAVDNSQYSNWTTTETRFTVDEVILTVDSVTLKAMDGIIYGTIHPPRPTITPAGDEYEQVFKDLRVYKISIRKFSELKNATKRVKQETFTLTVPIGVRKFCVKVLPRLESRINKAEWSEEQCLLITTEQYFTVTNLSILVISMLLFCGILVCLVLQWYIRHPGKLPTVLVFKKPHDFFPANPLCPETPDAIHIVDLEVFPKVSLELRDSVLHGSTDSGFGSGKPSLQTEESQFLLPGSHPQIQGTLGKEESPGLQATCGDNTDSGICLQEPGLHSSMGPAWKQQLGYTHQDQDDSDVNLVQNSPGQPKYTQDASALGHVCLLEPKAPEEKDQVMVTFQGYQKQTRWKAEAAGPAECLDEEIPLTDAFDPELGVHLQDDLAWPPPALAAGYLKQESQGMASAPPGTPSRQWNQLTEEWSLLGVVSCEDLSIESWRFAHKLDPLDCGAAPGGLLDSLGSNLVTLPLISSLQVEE
T1 sequence (looked up) 2: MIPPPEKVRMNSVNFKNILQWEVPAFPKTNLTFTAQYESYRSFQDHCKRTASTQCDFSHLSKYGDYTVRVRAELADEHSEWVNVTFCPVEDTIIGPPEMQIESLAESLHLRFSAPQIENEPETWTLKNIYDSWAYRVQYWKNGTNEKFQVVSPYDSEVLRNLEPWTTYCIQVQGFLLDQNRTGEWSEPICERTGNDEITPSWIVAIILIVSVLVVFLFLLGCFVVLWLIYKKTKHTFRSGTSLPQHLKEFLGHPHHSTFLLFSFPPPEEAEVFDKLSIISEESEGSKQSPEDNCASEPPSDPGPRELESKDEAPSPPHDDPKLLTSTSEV

[2] = target: T1, IL-10 receptor signaling complex on …; test: cell-based or functional assay; remark: listed apart in the source

B1: Wild-type His-IL-10 (ligand)
chain: MHHHHHHGSSENLYFQSPGQGTQSENSCTHFPGNLPNMLRDLRDAFSRVKTFFQMKDQLDNLLLKESLLEDFKGYLGCQALSEMIQFYLEEVMPQAENQDPDIKAHVNSLGENLKTLRLRLRRCHRFLPCENKSKAVEQVKNAFNKLQEKGIYKAMSEFDIFINYIEAYMTMKIRN
With B1 the “EC50, STAT3 phosphorylation, B cells, Balb/c mouse splenocytes” value [1] was 1.3 ng/mL, the “EC50, STAT3 phosphorylation, CD8 T cells, Balb/c mouse splenocytes” value [1] was 4.07 ng/mL and the “EC50, STAT3 phosphorylation, NK cells, Balb/c mouse splenocytes” value [1] was 1.08 ng/mL. For the same binder, the “EC50, STAT3 phosphorylation, B cells, B57BL/6 mouse splenocytes” value [2] was 0.83 ng/mL, the “EC50, STAT3 phosphorylation, CD8 T cells, B57BL/6 mouse splenocytes” value [2] was 3.65 ng/mL and the “EC50, STAT3 phosphorylation, NK cells, B57BL/6 mouse splenocytes” value [2] was 1.06 ng/mL.
